Source: the supplement of paper PMC7877785
± gives the uncertainty stated by the source.

Experiment: self-splicing fitness, log relative to wild type (ln ratio); higher = more splicing; Tetrahymena group I intron in knt gene, E. coli kanamycin selection, DiMSum; sequences stand for … in CUCUCU…GGAGGGAAAAGUUAUCAGGCAUGCACCUGGUAGCUAGUCUUUAAACCAAUAGAUUGCAUCGGUUUAAAAGGCAAGACCGUCAAAUUGCGGGAAAGGGGUCAACAGCCGUUCAGUACCAAGUCUCAGGGGAAACUUUGAGAUGGCCUUGCAAAGGGUAUGGUAAUAAGCUGACGGACAUGGUCCUAACCACGCAGCCAAGUCCUAAGUCAACAGAUCUUCUGUUGAUAUGGAUGCAGUUCACAGACUAAAUGUCGGUCGGGGAAGAUGUAUUCUUCUCAUAAGAUAUAGUCGGACCUCUCCUUAAUGGGAGCUAGCGGAUGAAGUGAUGCAACACUGGAGCCGCUGGGAACUAAUUUGUAUGCGAAAGUAUAUUGAUUAGUUUUGGAGUACUCGUGGUCG
In short: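 Six replicate transformations of E. coli BL21(DE3) with a pET-22b(+) library were grown overnight at 37°C or 30°C. The library randomised all eight P1ex-region intron nucleotides, the intron lying in the knt kanamycin-resistance gene, and plates were LB agar with or without 25 μg/mL kanamycin plus 100 μg/mL carbenicillin, 50 μM IPTG and 0.2% rhamnose. Pooled colonies were amplicon-sequenced on an Illumina HiSeq 2500, and fitness is the DiMSum error-weighted combination of wild-type-normalised replicate fold changes, kanamycin versus none.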

| Sequence | self-splicing fitness (ln) (30 °C) | self-splicing fitness (ln) (37 °C) |
| --- | --- | --- |
| AAUGAGCAAUAUUACGAAUA | -3.37 ± 0.39 | -2 ± 0.32 |
| CCAGAGCAAUAUUACGAACA | -2.39 ± 0.47 | -1.48 ± 0.49 |
| UCUAAGCAAUAUUACGCAAU | – | -3.12 ± 0.43 |
| UGUAAGCAAUAUUACGGCGA | -0.0897 ± 0.085 | -0.0127 ± 0.11 |
| CCUGAGCAAUAUUACGUGAA | -4.54 ± 0.34 | -2.83 ± 0.21 |
| GGCCAGCAAUAUUACGAAAG | -4.21 ± 0.37 | -2.71 ± 0.41 |
| CAGGAGCAAUAUUACGUUUU | -3.95 ± 0.35 | -2.3 ± 0.23 |
| UCGAAGCAAUAUUACGAGCU | -3.7 ± 0.47 | -1.24 ± 0.39 |
| UCAAAGCAAUAUUACGUGAC | -3.36 ± 0.12 | -2.15 ± 0.16 |
| GAAUAGCAAUAUUACGGGAA | -2.97 ± 0.19 | -0.92 ± 0.1 |
| AUCCAGCAAUAUUACGGCCC | -0.946 ± 0.2 | 0.127 ± 0.21 |
| AUGCAGCAAUAUUACGCGAC | -2.18 ± 0.17 | -0.372 ± 0.17 |
| AAGUAGCAAUAUUACGAAAU | -2.3 ± 0.2 | -0.59 ± 0.18 |
| GAUUAGCAAUAUUACGGUUA | -0.842 ± 0.14 | 0.0704 ± 0.15 |
| UGAGAGCAAUAUUACGUAAU | -3.22 ± 0.21 | -2.22 ± 0.26 |
| UUGCAGCAAUAUUACGAAUU | -2.18 ± 0.18 | -0.985 ± 0.19 |
| AGAGAGCAAUAUUACGGGCG | -3.07 ± 0.34 | -2.3 ± 0.5 |
| CUUGAGCAAUAUUACGACAG | -1.19 ± 0.1 | -0.98 ± 0.14 |
| AUCAAGCAAUAUUACGGGCA | -1.42 ± 0.098 | -0.95 ± 0.098 |
| UAGCAGCAAUAUUACGGGGA | -2.85 ± 0.2 | -1.73 ± 0.12 |
| UUAUAGCAAUAUUACGGCCU | -1.48 ± 0.18 | -1.09 ± 0.23 |
| UUUUAGCAAUAUUACGAAGA | -1.85 ± 0.31 | -1.21 ± 0.22 |
| UGUUAGCAAUAUUACGCUUA | -1.73 ± 0.18 | -0.323 ± 0.21 |
| UUCUAGCAAUAUUACGCAUU | -1.95 ± 0.29 | -1.5 ± 0.35 |
| GACGAGCAAUAUUACGCACC | -3.06 ± 0.15 | -0.796 ± 0.12 |
| AAGAAGCAAUAUUACGACUA | 0.152 ± 0.072 | 0.144 ± 0.1 |

| Sequence | self-splicing fitness (ln) (30 °C) | self-splicing fitness (ln) (37 °C) |
| --- | --- | --- |
| UCUCAGCAAUAUUACGUUUG | -4.44 ± 0.19 | -3.1 ± 0.15 |
| UGGGAGCAAUAUUACGCAGA | -1.08 ± 0.48 | -3 ± 0.35 |
| AGCCAGCAAUAUUACGUUAU | -3.94 ± 0.19 | -1.75 ± 0.12 |
| GCGCAGCAAUAUUACGUGUA | -0.699 ± 0.071 | -0.0774 ± 0.077 |
| UGCCAGCAAUAUUACGAAUC | -4.4 ± 0.46 | – |
| CUUAAGCAAUAUUACGAAUA | -2.42 ± 0.27 | -3.17 ± 0.43 |
| AUCAAGCAAUAUUACGUCCA | -1.23 ± 0.09 | -0.319 ± 0.11 |
| GAGGAGCAAUAUUACGGACG | -3.42 ± 0.36 | -0.785 ± 0.49 |
| ACUGAGCAAUAUUACGGAUC | – | -1.91 ± 0.35 |
| GAAUAGCAAUAUUACGCAUU | -3.04 ± 0.22 | -1.43 ± 0.2 |
| GCUGAGCAAUAUUACGCCUC | -1.67 ± 0.42 | -1.53 ± 0.49 |
| GCAUAGCAAUAUUACGUGAC | -2.49 ± 0.2 | -0.677 ± 0.14 |
| GUGUAGCAAUAUUACGGAUC | -1.04 ± 0.13 | 0.406 ± 0.17 |
| AUGGAGCAAUAUUACGCAGC | -2.14 ± 0.23 | -2.54 ± 0.33 |
| UCUCAGCAAUAUUACGUUGG | -3.58 ± 0.14 | -3.73 ± 0.23 |
| CGGGAGCAAUAUUACGCGUA | -2.29 ± 0.29 | -1.03 ± 0.24 |
| UUCGAGCAAUAUUACGGAAG | -2.42 ± 0.22 | -2.12 ± 0.4 |
| GGAGAGCAAUAUUACGUGCU | -2.88 ± 0.27 | – |
| UUCGAGCAAUAUUACGCUCU | -3.38 ± 0.15 | -2.43 ± 0.14 |
| AUUUAGCAAUAUUACGUGUA | -2.42 ± 0.23 | -1.5 ± 0.17 |
| GGUAAGCAAUAUUACGACAG | -2.56 ± 0.29 | -1.99 ± 0.44 |
| CAAAAGCAAUAUUACGGGGU | -4.06 ± 0.2 | -2.7 ± 0.18 |
| GAAAAGCAAUAUUACGGCUA | -0.156 ± 0.082 | 0.451 ± 0.082 |
| AAAAAGCAAUAUUACGCCGA | -1.19 ± 0.088 | -1.01 ± 0.099 |
| AAACAGCAAUAUUACGCGUA | -1.64 ± 0.093 | -0.734 ± 0.083 |
| CUCCAGCAAUAUUACGCUCU | -3.59 ± 0.31 | -3.04 ± 0.34 |

| Sequence | self-splicing fitness (ln) (30 °C) | self-splicing fitness (ln) (37 °C) |
| --- | --- | --- |
| UCGUAGCAAUAUUACGGUGU | -3.09 ± 0.13 | -2.7 ± 0.19 |
| GCUAAGCAAUAUUACGAGGA | -1.73 ± 0.11 | -0.693 ± 0.12 |
| ACGUAGCAAUAUUACGAGGA | -2.78 ± 0.33 | -2.75 ± 0.38 |
| UACCAGCAAUAUUACGGAUU | -0.984 ± 0.071 | -0.93 ± 0.077 |
| UGGCAGCAAUAUUACGUAGC | -4.18 ± 0.29 | -2.28 ± 0.19 |
| GCCCAGCAAUAUUACGGCGC | -3.02 ± 0.17 | -1.87 ± 0.16 |
| AUAGAGCAAUAUUACGCAGU | -1.73 ± 0.16 | -0.369 ± 0.19 |
| CUUUAGCAAUAUUACGUCUU | -3.41 ± 0.26 | -3.28 ± 0.33 |
| CUGCAGCAAUAUUACGCGGU | -2.5 ± 0.15 | -2.89 ± 0.23 |
| AUAUAGCAAUAUUACGUAGC | -4.04 ± 0.39 | -2.54 ± 0.33 |
| GAUUAGCAAUAUUACGCGAC | -3.24 ± 0.31 | -2.32 ± 0.23 |
| UAUGAGCAAUAUUACGUCGG | -2.86 ± 0.23 | -2.18 ± 0.2 |
| CCAUAGCAAUAUUACGGAUU | -3.49 ± 0.19 | -2.96 ± 0.24 |
| GUUCAGCAAUAUUACGGAAA | -0.778 ± 0.13 | 0.58 ± 0.19 |
| CGACAGCAAUAUUACGGUGU | -3.48 ± 0.14 | -2.77 ± 0.16 |
| GAAGAGCAAUAUUACGGGAU | -3.63 ± 0.22 | -3.16 ± 0.3 |
| AACGAGCAAUAUUACGGAUC | -2.26 ± 0.19 | -2.31 ± 0.17 |
| AAUUAGCAAUAUUACGAACC | -0.0097 ± 0.32 | -0.827 ± 0.36 |
| GUGAAGCAAUAUUACGAACG | -1.57 ± 0.4 | – |
| AGUCAGCAAUAUUACGGAUG | -1.36 ± 0.054 | 0.106 ± 0.069 |
| CUGUAGCAAUAUUACGAACA | -2 ± 0.41 | – |
| GCUUAGCAAUAUUACGUUAC | -2.56 ± 0.18 | -1.88 ± 0.19 |
| CUUCAGCAAUAUUACGUGGG | -3.96 ± 0.16 | -2.38 ± 0.19 |
| AGAUAGCAAUAUUACGAAUA | -2.76 ± 0.49 | -2.16 ± 0.48 |
| ACAAAGCAAUAUUACGCCAG | -1.94 ± 0.13 | -1.11 ± 0.16 |
